# ± gives the standard deviation of the averaged measurements.
# Tested on: ATP
# Assay: switch fluorescence ratio, 500 uM ATP over buffer (Cy3 cluster intensity, sum of 5 cycles each) (fold (ratio)); higher = stronger signal-on switching upon ATP binding; sequences stand for … in TCGTCGGCAGCGTCAGATGTGTATAAGAGACAGTTTTTTTTTTTTTTTTTTTTTTTTT…TC
# Conditions: aptamer strand: ATP DNA aptamer (quencher-CACCTGGGGGAGTATTGCGGAGGAAGG + anchor), 100 nM annealed; ATP concentration: 500 uM
# Outline: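 The fluorescence ratio divides summed target-cycle Cy3 intensity by summed buffer-cycle Cy3 intensity for each cluster and is averaged per switch-domain sequence. Cy3-labelled switching-strand clusters on a modified Illumina MiSeq flow-cell were annealed to 100 nM quencher-labelled ATP aptamer, then imaged in selection buffer and again after 15 min with 500 uM ATP at 22 °C. Five such cycles were run, with NaOH stripping and re-annealing between them, and clusters outside 100-1000 RFU were excluded.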
# 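Note: ATP exposure 15 min at 22 °C before imaging.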
sequence,measurement,value
CGGGCTTTAA,switch fluorescence ratio,0.995 ± 0.026
CGGGCTTTAT,switch fluorescence ratio,1.006 ± 0.0073
CGGGCTTTGG,switch fluorescence ratio,1.01 ± 0.035
CGGGGAAAGT,switch fluorescence ratio,0.996 ± 0.015
CGGGGACAGA,switch fluorescence ratio,0.984 ± 0.041
CGGGGACGGC,switch fluorescence ratio,0.98 ± 0.025
CGGGGACTTC,switch fluorescence ratio,1.02 ± 0.019
CGGGGATTGA,switch fluorescence ratio,0.97 ± 0.03
CGGGGCAAGG,switch fluorescence ratio,0.984 ± 0.057
CGGGGCACCA,switch fluorescence ratio,0.99 ± 0.032
CGGGGCAGGG,switch fluorescence ratio,1.01 ± 0.062
CGGGGCGCGC,switch fluorescence ratio,1.02 ± 0.044
CGGGGCGGTG,switch fluorescence ratio,1.02 ± 0.037
CGGGGCGTGT,switch fluorescence ratio,0.988 ± 0.046
CGGGGCTAGC,switch fluorescence ratio,1.02 ± 0.026
CGGGGCTATG,switch fluorescence ratio,0.997 ± 0.0053
CGGGGCTGCT,switch fluorescence ratio,1.01 ± 0.018
CGGGGCTGTG,switch fluorescence ratio,1 ± 0.013
CGGGGGAAAA,switch fluorescence ratio,1.03 ± 0.054
CGGGGGAAAG,switch fluorescence ratio,1.01 ± 0.041
CGGGGGAAGT,switch fluorescence ratio,0.981 ± 0.068
CGGGGGACAG,switch fluorescence ratio,1.03 ± 0.066
CGGGGGACTA,switch fluorescence ratio,0.985 ± 0.015
CGGGGGAGCA,switch fluorescence ratio,1.01 ± 0.017
CGGGGGCAAG,switch fluorescence ratio,1.07 ± 0.016
CGGGGGCGGT,switch fluorescence ratio,0.998 ± 0.03
CGGGGGGA,switch fluorescence ratio,1.39 ± 0.54
CGGGGGGAGA,switch fluorescence ratio,1.03 ± 0.061
CGGGGGGCCA,switch fluorescence ratio,1.016 ± 0.0048
CGGGGGGGAG,switch fluorescence ratio,1.01 ± 0.067
CGGGGGGGGC,switch fluorescence ratio,1.02 ± 0.044
CGGGGGTCCG,switch fluorescence ratio,0.926 ± 0.087
CGGGGGTGTA,switch fluorescence ratio,0.995 ± 0.026
CGGGGGTGTG,switch fluorescence ratio,0.993 ± 0.035
CGGGGTAGTG,switch fluorescence ratio,0.999 ± 0.02
CGGGGTATTC,switch fluorescence ratio,0.964 ± 0.078
CGGGGTGAGA,switch fluorescence ratio,0.9809 ± 0.0069
CGGGGTGCAC,switch fluorescence ratio,1.05 ± 0.023
CGGGGTGTCT,switch fluorescence ratio,1.02 ± 0.071
CGGGGTGTGT,switch fluorescence ratio,1.01 ± 0.023
CGGGGTGTTT,switch fluorescence ratio,1.012 ± 0.0055
CGGGGTTCGT,switch fluorescence ratio,0.983 ± 0.028
CGGGGTTGAA,switch fluorescence ratio,0.998 ± 0.03
CGGGGTTTGA,switch fluorescence ratio,1.02 ± 0.028
CGGGGTTTGT,switch fluorescence ratio,1.01 ± 0.011
CGGGGTTTTT,switch fluorescence ratio,1.03 ± 0.12
CGGGTAAGT,switch fluorescence ratio,1 ± 0.022
CGGGTAGGTA,switch fluorescence ratio,1 ± 0.012
CGGGTCCGTA,switch fluorescence ratio,0.9751 ± 0.004
CGGGTCGGGG,switch fluorescence ratio,0.998 ± 0.025
CGGGTCTTGG,switch fluorescence ratio,1.03 ± 0.023
CGGGTGAAGG,switch fluorescence ratio,1.06 ± 0.049
CGGGTGGCAG,switch fluorescence ratio,1.01 ± 0.061
CGGGTGGCGG,switch fluorescence ratio,0.994 ± 0.012
CGGGTGGTGC,switch fluorescence ratio,1.014 ± 0.0086
CGGGTGGTTC,switch fluorescence ratio,0.994 ± 0.012
CGGGTGTAAG,switch fluorescence ratio,1.01 ± 0.033
CGGGTGTCAC,switch fluorescence ratio,1.06 ± 0.024
CGGGTGTGTC,switch fluorescence ratio,1.045 ± 0.0042
CGGGTTCCAC,switch fluorescence ratio,1.01 ± 0.05
CGGGTTTAAA,switch fluorescence ratio,1 ± 0.011
CGGGTTTGTC,switch fluorescence ratio,1 ± 0.035
CGGGTTTTAC,switch fluorescence ratio,1.01 ± 0.039
CGGGTTTTCG,switch fluorescence ratio,0.988 ± 0.018
CGGTAAAGCG,switch fluorescence ratio,0.9808 ± 0.0071
CGGTAATGTT,switch fluorescence ratio,1 ± 0.027
CGGTACACGT,switch fluorescence ratio,1.0186 ± 0.00031
CGGTACCCAT,switch fluorescence ratio,1.01 ± 0.018
CGGTACCGTG,switch fluorescence ratio,0.9844 ± 0.007
CGGTACGACG,switch fluorescence ratio,0.94 ± 0.019
CGGTACGAGC,switch fluorescence ratio,0.992 ± 0.046
CGGTACGGAT,switch fluorescence ratio,0.989 ± 0.043
CGGTACTTGG,switch fluorescence ratio,0.967 ± 0.05
CGGTAGACCT,switch fluorescence ratio,1.105 ± 0.0037
CGGTAGGACA,switch fluorescence ratio,1 ± 0.011
CGGTAGGGTT,switch fluorescence ratio,0.978 ± 0.022
CGGTAGTTCG,switch fluorescence ratio,0.955 ± 0.038
CGGTATAACG,switch fluorescence ratio,0.997 ± 0.043
CGGTATACTG,switch fluorescence ratio,1.04 ± 0.049
CGGTATGGCT,switch fluorescence ratio,0.9689 ± 0.0062
CGGTCAGTTT,switch fluorescence ratio,1.025 ± 0.0089
CGGTCATATT,switch fluorescence ratio,0.9892 ± 0.0037
CGGTCCCGGC,switch fluorescence ratio,1.03 ± 0.05
CGGTCCGTTT,switch fluorescence ratio,1.02 ± 0.042
CGGTCCTATG,switch fluorescence ratio,0.993 ± 0.029
CGGTCGGTTG,switch fluorescence ratio,1.06 ± 0.022
CGGTCTACCT,switch fluorescence ratio,1.02 ± 0.014
CGGTCTATAG,switch fluorescence ratio,1.02 ± 0.053
CGGTCTGCGA,switch fluorescence ratio,1.05 ± 0.013
CGGTGACTGA,switch fluorescence ratio,0.9569 ± 0.008
CGGTGAGGGA,switch fluorescence ratio,0.978 ± 0.044
CGGTGAGGGT,switch fluorescence ratio,0.9863 ± 0.0071
CGGTGAGTGG,switch fluorescence ratio,1.01 ± 0.02
CGGTGGCGGG,switch fluorescence ratio,1.004 ± 0.0095
CGGTGGGACG,switch fluorescence ratio,1.02 ± 0.022
CGGTGGGGAC,switch fluorescence ratio,1.04 ± 0.13
CGGTGGGGCA,switch fluorescence ratio,1.1 ± 0.13
CGGTGGGTGT,switch fluorescence ratio,0.931 ± 0.011
CGGTGGTCCA,switch fluorescence ratio,0.997 ± 0.017
CGGTGGTCGC,switch fluorescence ratio,0.984 ± 0.019
CGGTGGTGGG,switch fluorescence ratio,1.031 ± 0.0066
CGGTGTTAAC,switch fluorescence ratio,0.957 ± 0.036
CGGTGTTGTC,switch fluorescence ratio,0.964 ± 0.0037
CGGTTAAAGC,switch fluorescence ratio,0.94 ± 0.014
CGGTTAACGT,switch fluorescence ratio,1.01 ± 0.033
CGGTTAATTT,switch fluorescence ratio,1.01 ± 0.027
CGGTTACCGT,switch fluorescence ratio,0.986 ± 0.013
CGGTTACGAC,switch fluorescence ratio,1.02 ± 0.021
CGGTTACGAG,switch fluorescence ratio,0.9952 ± 0.0029
CGGTTAGGAA,switch fluorescence ratio,1.01 ± 0.025
CGGTTAGGGA,switch fluorescence ratio,0.965 ± 0.03
CGGTTATCGG,switch fluorescence ratio,1.002 ± 0.0031
CGGTTCGGCG,switch fluorescence ratio,0.987 ± 0.0099
CGGTTGCCCG,switch fluorescence ratio,0.979 ± 0.12
CGGTTGGCCT,switch fluorescence ratio,0.9978 ± 0.0069
CGGTTGGGTA,switch fluorescence ratio,0.977 ± 0.014
CGGTTGGGTG,switch fluorescence ratio,0.97348 ± 6.3e-05
CGGTTGTAGG,switch fluorescence ratio,0.999 ± 0.015
CGGTTGTCGG,switch fluorescence ratio,0.997 ± 0.013
CGGTTGTGAG,switch fluorescence ratio,1.01 ± 0.031
CGGTTGTGTA,switch fluorescence ratio,1.03 ± 0.023
CGGTTTACGG,switch fluorescence ratio,0.986 ± 0.011
CGGTTTATGA,switch fluorescence ratio,0.968 ± 0.016
CGGTTTGAGT,switch fluorescence ratio,0.983 ± 0.019
CGGTTTGGCA,switch fluorescence ratio,0.992 ± 0.014
CGGTTTGTGT,switch fluorescence ratio,0.998 ± 0.029
CGGTTTTGGC,switch fluorescence ratio,0.998 ± 0.019
CGGTTTTTTT,switch fluorescence ratio,0.978 ± 0.016
CGTAAAACTA,switch fluorescence ratio,1.03 ± 0.042
CGTAAAAGAC,switch fluorescence ratio,1.23 ± 0.19
CGTAAAATAC,switch fluorescence ratio,2.85 ± 0.056
CGTAACCTTG,switch fluorescence ratio,1.023 ± 0.0071
CGTAACGTGG,switch fluorescence ratio,0.9938 ± 0.0078
CGTAATAGAT,switch fluorescence ratio,1.02 ± 0.026
CGTAATGGGG,switch fluorescence ratio,1.022 ± 0.01
CGTACAGATA,switch fluorescence ratio,0.994 ± 0.027
CGTACAGTGG,switch fluorescence ratio,1.02 ± 0.046
CGTACGGACG,switch fluorescence ratio,0.984 ± 0.021
CGTACGGCGG,switch fluorescence ratio,1.015 ± 0.0038
CGTACTCGTA,switch fluorescence ratio,1.01 ± 0.019
CGTAGAAAAG,switch fluorescence ratio,0.998 ± 0.025
CGTAGACGAG,switch fluorescence ratio,1.03 ± 0.016
CGTAGACTCG,switch fluorescence ratio,1.02 ± 0.05
CGTAGAGGGC,switch fluorescence ratio,0.986 ± 0.034
CGTAGATAGC,switch fluorescence ratio,1.07 ± 0.02
CGTAGATTTT,switch fluorescence ratio,1 ± 0.046
CGTAGCGTCC,switch fluorescence ratio,1.13 ± 0.019
CGTAGCTTTG,switch fluorescence ratio,1.086 ± 0.0028
CGTAGGAGG,switch fluorescence ratio,0.9784 ± 0.0044
CGTAGGTGCA,switch fluorescence ratio,1.05 ± 0.022
CGTAGGTTTT,switch fluorescence ratio,1 ± 0.067
CGTAGTGTAG,switch fluorescence ratio,1.02 ± 0.052
CGTAGTTGG,switch fluorescence ratio,0.988 ± 0.049
